In patent US20240026407A1, “MODIFICATION OF SAPONINS” (GLAXOSMITHKLINE BIOLOGICALS SA, priority 2020, published 2024):

B1: 868 (protein, listed as Dictyoglomus thermophilum)
chain: MKLEYKIPYRIERGEQTNFSPLFIRIISQGGKQMEKDIKKLISQMTLEEKASLCSGLDFWHTKPIERLGIPSIRMSDGPHGLRKEETMFSKTVPATCFPTAVTIAASWDKLLAEKMGKAIGEECQAENVQILLGPGINMKRSPLCGRNFEYYSEDPILAGELAAHFIKGVQSQGVGTSLKHFAANNQEHRRLTVDAIIDERTLREIYLTAFEKAVKEAKPWTVMCSYNKVNGTYASENEFLLTKVLREEWGFEGFVVSDWGAVNDRVKGLAAGLDLQMPYDGGNGDKKIIEAVKSGKLPEEVLDRAVERILKIVFKAIENKKENATYDKEAHHKLAREIARECFVLLKNENNILPLKKEGKIALIGAFAKKPQIQGGGSAHVNPTRVDDAVEEIKKLVGDKVEILYADGYHIEKDDVDEKLIEEAKEIAKKADVVVIFAGLPERYESEGFDRPHMKMPESHNRLIEEVAKVNSNLVVVLSNGAPIEMPWVDKPKAILETYRGGQAWGGAVADVLFGVVNPSGKLPESFPKKLSDNPSYLFFPGEDDRSEYREGIFIGYRYYDKKEMEVLFPFGYGLSYTTFEYSDLKLDKKEMKDDEVLKVSVKVKNTGKVKGKEIVQLYVRDVKSNYIRPEKELKGFEKVELEPGEEKEVVFYLDKRAFAFYNIDIKDWYVEDGEFEILIGKSSRDIVLKDKVFVKSTTKIKRHYHINSTIGDIMSDPEASAKFKHILEQFASAFPAFSSEEAIMNFAEMMKYMPLRNLIHFGQGKFTEEMLENLLKEINS
B2: 876 (protein, listed as Pyrenochaeta sp.)
chain: MQLSEMALTGVEVDATDVEYILKQMSLDEKIQMLAAKNVWETPEIERVGIPSLKVTDGPNGARGGSFFDGTTAACFPASVSLAATFSRELSRQIGTALGQEAITKGAYAVLGPTVCCHRSPLGGRNFEAFSEDPYLSGTLASEYVQGLQQERVAATVKHFLANEQDTRRFSINQTISERALREIYLKPFEMVVKEAKPWCFMSSYPKINGKHVDAQSLFLEDILRKEWSYDGLVMSDWGATSTVESVSYGLDLEMPGPPRFRTPEAVHQALLKGTVSESDIDARVLTTLKLLERVGKFADRRDTPKETAVDRPEHRELIRKAGSEGIVLLKNDRGILPIDVTKTKKVALLGPLAKYAAAHGGGSASLNCHYKVSPFDAFKDRLSEDVEIAHSKGAHIFRVYPDLEEGCLNARQRPGFLAEYFMTSRVTEEPFLVEQFPRGSFTTLMNTRATGCKTVRFTTTYSPVTPGAHYLSFSGLGPSKFYINDELVAHQTESTKDAMGFLLGVQEEIRTQFVFEVGKEYNIVVETHPSPTSNAELYLLDNQCSVHLGLISQEEMEQDVLAEAVSLAKDADLAIVFVGNTTQWETEGQDLESMSLPANGSQDDLIVRVAAANPNTIVVNTTGVPVELPWIDSVPAFLQAWYAGQETGNAILDVLLGTTCPSGKLPISWPKKYEHTGCFGNFGLDSFESRQVDYVEGVFVGYRWFDNLWGGEKEVRFPFGFGLSYTTFEITGTSIKGSLSNDAHHVLRVSIKVKNVGKCLGAEIVQVYLKPPVTEGLERPQKTLAGFEKIELRVGEEREVHIAIGKENAAFWDENLSKWRVSTGVYEVLVATSSHPRDCRAVLETVVEDEFIFKA
B3: 850 (protein, listed as Bifidobacterium scardovii)
chain: MSESTYPSVKDLTLEEKASLTSGGDVWHLQGVESKGIPGYMITDGPHGLRKSLASSAGETDLDASVPATCFPPAAGLSSSWNPELIRKVGEAMGEECIQEKVAVILGPGVNIKRNPLGGRCFEYWSEDPYLAGHEAIGIVEGVQSKGVGTSLKHFAANNQETDRLRISANIGPRALREIYLPAFEHIVKTAQPWTVMCSYNRINGVYSAQNRWLLTDVLRGEWGFEGIVMSDWGADHDRVASLNAGLNLEMPPSYTDDEIVHAARDGRIAPAQLDAMAQGMIDLVNRTRAAMSVDDYRFDVDAHDEVAHQAAVESIVMLKNDGAILPLDADAASGQKIAVIGEFARTPRYQGGGSSHITPTRMTSFLDALDERGIAAEFAPGFTLDLEPADPALEAQAVDAAKRADTVLMFLGLPEAAESEGFDRETLDIPAKQIALLDAVAAANDQVVVVLSNGSAVSVAPWAGRAKGILESWLLGQAGGPALADVIFGRTSPSGKLAQTIPMDINDDPSMVNWPGEEGHVDYGEGVFVGYRYYDTYGKAVGYPFGYGLSYATFEISKAAVARTGANAAVVTATVTNTSGVDGAETVQVYVAPGKADVARPRHELKGFVKVFLKAGESADVAIDLDERAFAYWSERYDDWHIESGEYAVEIGTSSRDIAATVTVALEGDGKTQPLTAWSTYGEWSSDPIGAKVMAAVAAAGEAGELPKLPDNAMMNMFLMAMPINSLPTLMSEGGKSITRFMLDEYARLTK
B4: 819 (protein)
chain: MTTVHPDDYADRASELVAAMTLDEKASLTSGADFWNLKTVERLGLGAVMVTDGPHGLRKATNDAEIGIGQAVPATCFPTAAALGSTWDDELLEQVGAALGEEARAAGVAVVLGPGVNMKRSPLCGRNFEYFSEDPLVAGRAGAAMVRGVQSQGVGTSVKHFAANSQETDRMRIDARIGERALREIYLPAFERIVTQTRPWTVMCAYNKVNGTYASQHPWLLTTVLREDWGFGGLVVSDWGAVDQRVPGLAAGLDLEMPASGGVTDEQIARAVRTGELDEAVLDRAVQRIVALILAAQAVEPGTGFDTDAHHELARKAAAAGAVLLRNEPVDGSPVLPLDARDITGQAPLVVIGEFARTPRYQGAGSSQINPTRLDSALDALREQLGGAVRFEPGYRLAEATGMPGQELTDDELADRAVEAARGATVVLFAGLPAAVESEGYDRDDIELPNAQTTLIERVSAVAARTTVVLSNGSVVSVASWREKVDALLECWLGGQGGGSATADVLLGRSCPGGHLAESIPLALSDVPAQLNFPGSHSRVDHGEGVFVGYRGLDTMGREVAYPFGFGLTYTTFELTGVQATPVVTVADGTGLDETVAVVRGTLTNTGQRTGAQVVQLYLGRHEASRVARAPRELRGYEKITLAPGQSAPFEFALSRRDLSYWDEGTGCWQVEPGAYRAWVGFSSRDAAAVLPLQVTAPEPASPLGKDSTYAEWMAHPVGGPLLRTDARAFVDDMASSGAYELFAAMPLERLVRLPGSLLAPEDYLTLLDRAQAGQD
modifications: Propionibacterium australiense
B5: 879 (protein, listed as Morchella conica)
chain: MTVSPLPKDLQKKVNDVLDSLTLLEQVSLLAGKDFWRTVEIPGKVPSIKVTDGPSGARGQFFSGGTKAAFFPSGVSLAATFDPELITHIGNALGQETKTKAAQVLLAPTACNHRSPLGGRNFESFSEDPYLSGKLAASYISGVQAEGVAVTMKHFVANEQETKRFSVNEIIDERALREIYLKPFEIAVREAGPWGIMSSYNKVNAHHADLHPFSMKQVLRAEWGWDGLVMSDWGGTNSTAESLIAGLDLEMPGPTRRRGELLLKAVQDTNSSPELLAAIKTGARHVLELIARTGRWGKFQEAEEQAVDKLEHRELIRKTGAHGIVLLKNEGATLPIKREQIKSVAWIGPNANETIAGGGGSANLNPHYLTNPLESFTAAVEENDIKVAYEIGCQTEKWVRVFPVEEGRARTAPSATEGAPGLKVDFFGGRECSGECVASNVMTTSNIFLMDGKPPVLGDQDYSVRITTYIRPEATGEHVVGVGSIGPTKIYVDDKLLIDHTHWIELGELFFTSGSEEVTQKIHLEAGKWYKLVAETTSKSPEQKLPDMGNDNLDFASAIGIRLGIDAVRDVQEYIDRAATLAKKSDVAVVVVGMNNEWESEGYDRHTMALPGKQNELIEAVVKANPNTIVVNQSGCPVTMPWLDRVPAVLQAWYQGQEAGNALVDVLLGKVNPSGRLPITFPKRLEDNPSFGNFGDGGEKNQIAYTEGIYVGYRHYNSRDIPVLFPFGFGLSYTSFELGAPTVDQAAFEIGKKITVQVPVKNTGAIKGIETVQVYLAPKKSAVDRPKRELKGFAKIELEAGESGVARIELDHYAPGLFCEERKCWRALEGAYVVEVGRNVQEIDGSVEVAVEREYEWVF
B6: 826 (protein)
chain: MSDYPSVNDLTLEEKAALTSGTNPWSLGNVAAKGLPNYTITDGPHGLRKAQNTESMDVEENVPATCFPPAAGMACSWNPELVERVGEAMGEECIQEQVAVILGPGVNIKRNPLGGRCFEYWSEDPYLAGHTAVGIVKGVQSKGVGTSLKHFAANNQETDRLRISATISPRAMREIYLPAFEYIVKTAQPWTVMCSYNKINGVFSSQNRWLLTDVLRGEWGFKGIVMSDWGAVSDRVAALNAGLNLEMPPSNTDDQIVAAAKDGRIPAAQLDEMAQGMIDLVAKARPAMSRDGYRYDVDAHNEVARQAAVESMVLLKNEDATLPVAKGAKIAVIGEFARTPRYQGAGSSLINPTKLTSFLDAIEERGVAADFAPGFTLDDAAQDPALTEQAVTAAQQADVVLLFLGLPAAYESEGFDRTTLDIPAKQVEVLDAVAAANPNVAVVLSNGSVVSMPWRGRAKAILETWLLGQAGGAALADVIFGDETPSGKLAQTIIDDVNDDPSAMNWPGEEGHVDYGEGVFVGYRYHDTFRKQVTYPFGYGLSYATFDVHDATVAKTGPRTAEVTVTVTNTSDVAGAETVQVYVAPPKAKVARPVHELKGFAKVALEPGESKNVTIALDDRAFAYWSERFDDWHVEGGTYTVEVGVSSRDIVSRIDVEIDDDGKIMNLDEWSTFGEWLDDPIGAPILQHVLDDMAKEAGHPVIPDSALMVMFLRSMPLRSLSVILGEAGEQVAANLTEAYRKATA
modifications: Bifidobacterium saeculare

Legend:
Format in all cases: biochemical, Quillaja saponaria
[1] = Experiment 5-1: screening of additional glucosidases for deglycosylation with purified QS-18 (0.04 mg/ml) at pH 7.5 and 30 deg C; details: pH 7.5, 30 degrees C, 18 hours, LCMS/MS
Method: The 94 additional genes, together with positive control (DNA encoding SEQ ID No. 262) and negative control, were transformed, expressed, lysed and reacted in the same manner as described above for Experiment 4-1, except the reaction was incubated at 30 degrees C. for 18 hours.
Samples were analysed by LCMS/MS according to the procedure in Experiment 4-1.

[2] = Experiment 5-2: screening of additional glucosidases for deglycosylation with QS-18 in crude bark extract (80%) at pH 6 and 35 deg C; details: CBE 80%, pH 6, 35 deg C, 18 hours; UV HPLC
Procedure, shortened: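 Deglycosylation of QS-18 was monitored by UV HPLC after MeCN/AcOH quench with hexanophenone. The reaction ran 18 hours at 35 deg C, shaking, combining clarified pH 6 lysate with crude bark extract neutralised to pH 6 by NaOH.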

[3] = Experiment 5-3: screening of additional glucosidases for deglycosylation with QS-18 in treated bark extract (80%) at pH 6 and 35 deg C; details: TBE 80% (QS-21 approx. 4 g/L), pH 6, 35 deg C; UV HPLC
Method: Experiment 5-1 was repeated, replacing CBE with Treated Bark Extract (TBE) at pH 6. TBE was prepared from CBE by PVPP treatment and concentration, to provide TBE with a QS-21 concentration of approximately 4 g/L. TBE was adjusted to pH 6 by dropwise addition of 2M NaOH with stirring.

Row | Molecule | Experiment 5-1 % conv [1] [%] | Experiment 5-2 % conv [2] [%] | Experiment 5-3 % conv [3] [%]
1 | B1 | 89.9 | <0.5 | <0.5
2 | B2 | 3.1 | <0.5 | <0.5
3 | B3 | 95.3 | <0.5 | <0.5
4 | B4 | 3.2 | <0.5 | <0.5
5 | B5 | 90.1 | <0.5 | <0.5
6 | B6 | 86.9 | 0.8 | 1.4
